# T1: activin-A (Mus musculus, UniProt Q04998)
# T1 construct: from tissue; host or cells: serum of inhibin-alpha knockout (inh-KO) mice and wild-type littermates
# T1 sequence (Q04998 309-424): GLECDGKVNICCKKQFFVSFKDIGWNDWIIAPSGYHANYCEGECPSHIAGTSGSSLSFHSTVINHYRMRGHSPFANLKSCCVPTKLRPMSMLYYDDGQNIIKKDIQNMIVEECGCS
# B1: sActRIIB: extracellular domain of human activin type-2B receptor fused to IgG2 Fc, expressed in CHO cells; sequence in the 26th table (protein)
# chain: ETRWCIYYNANWELERTNQGLERCEGEQDKRLHCYASWRNSSGTIELVKKGCWLDDFNCYDRQECVATEENPQVYFCCCEGNFCNERFTHLPEAGGPEVTYEPPPTAPTGGGGSVECPPCPAPPVAGPSVFLFPPKPKDTLMISRTPEVTCVVVDVSHEDPEVQFNWYVDGVEVHNAKTKPREEQFNSTFRVVSVLTVVHQDWLNGKEYKCKVSNKGLPAPIEKTISKTKGQPREPQVYTLPPSREEMTKNQVSLTCLVKGFYPSDIAVEWESNGQPENNYKTTPPMLDSDGSFFLYSKLTVDKSRWQQGNVFSCSVMHEALHNHYTQKSLSLSPGK
# modifications: left off: a dimerising Fc or GST
# Key:
# [1] = system: G361 human melanoma xenografts; assay: G361 human melanoma xenograft growth in nude mice; format: in vivo; conditions: sActRIIB 20 mg/kg SC 1x/week from day 14, FIG. 19
# Method: 5×10^6 G361 melanoma cells and 5637 bladder carcinoma cells, respectively, were inoculated SC into individual athymic nu/nu mice (Harlan Inc). Treatment was initiated 4 days after 5637 implantation and 14 days after G361 implantation, when the tumor volumes reached 130 mm^3−150 mm^3 5637-implanted mice received PBS or activin-A antibody (10 mg/kg, SC, 2×/week). G361-implanted mice received PBS or sActRIIB (20 mg/kg, SC, 1×/week).
# For all xenograft experiments, the tumor sizes were measured longitudinally by using an electronic caliper Immediately prior to the 1st dose, the tumor-bearing mice were randomized to ensure even distribution in tumor sizes across different groups. Tumor volumes (mm^3) were calculated as tumor length (mm)×tumor width (mm)×tumor height (mm) Tumor weights were determined by necropsy.
# [2] = system: testicular tumors in inh-KO mice; assay: Testicular tumor mass in inh-KO mice (necropsy); format: in vivo, mouse; conditions: 8-week-old male inh-KO mice; single dose 30 mg/kg SC; necropsy 14 days after injection; FIG. 4A, 4B
# Method: (§1) 12-week-old female and 8-week-old male inh-KO mice with fully established ovarian or testicular tumors received a single injection of PBS or sActRIIB (30 mg/kg, SC). As a control, age-matched wild-type littermates received a single injection of PBS. Ovarian and testicular organ weights were determined by necropsy 14 days after the injection.
# E-cadherin = E-cadherin in ovarian tumors of inh-KO mice (Western blot, immunostaining); format: in vivo, mouse
# Method: as §1
# Protein extracts were prepared from cell cultures or tissues in T-PER tissue protein extraction reagent (Pierce) containing a mixture of protease inhibitors (Roche). A pool of 50 μg total protein for each group containing equal amounts of protein extract isolated from individual animals was separated by NuPAGE 4-12% Bis-Tris gel (Invitrogen) and transferred to PVDF. The membranes were probed with primary antibodies against total Smad2, p-Smad2 or E-cadherin (1:1000; Cell Signaling), endoglin, osteopontin (1:500; R&D Systems), IGFBP-1, IGFBP-2 (1:500; Abcam) followed by HRP-conjugated secondary antibody (1:2000; Cell Signaling). The membranes were stripped and re-probed with antibody against α-tubulin (1:1000; Cell Signaling).
# Zinc-formalin fixed paraffin tumor tissue sections of 4 μm in thickness were prepared. […] The immunostained tissue sections were analyzed and photographed using a Nikon Eclipse 90i microscope equipped with DS-Ril camera. […]
# activin-A = target: T1, activin-A; assay: Serum activin-A levels in inh-KO mice (ELISA); format: in vivo; conditions: single dose 30 mg/kg SC
# Method: as §1
# All serum samples from ovarian cancer patients and healthy subjects were collected under informed consent and were purchased from Bioreclamation, Inc. The serum samples were diluted in buffer (DY995, R&D Systems) and pretreated overnight at 4° C. with 4 M urea (Sigma) to dissociate any protein bound to activin-A. The samples were then transferred to 96 well plates pre-coated with an activin-A monoclonal antibody. After 2 hr incubation at room temperature and a washing step (0.05% Tween 20 in DPBS), a biotin-labeled activin-A monoclonal antibody was added for 1 hr at room temperature. […] An acidic stopping solution (KPL) was added and the degree of enzymatic turnover of the substrate was determined by wavelength absorbance measurement at 450 nm. The absorbance measured is directly proportional to the concentration of activin-A present. A standard curve of absorbance versus activin-A concentration was used to determine the amount of Activin-A in the test sample. Serum activin-A levels in inh-KO mice were measured by using ELISA.
# [3] = system: ovarian tumors in inh-KO mice; assay: Light microscopy (H&E) of ovaries of inh-KO mice; format: in vivo, mouse; conditions: female inh-KO mice; FIG. 7A
# Method: as §1
# (§2) Testes and ovaries from inh-KO mice were fixed with Zinc-formalin. Tissue sections were subjected to H&E staining and then examined with a Nikon Eclipse 90i microscope.
# [4] = system: testicular tumors in inh-KO mice; assay: Light microscopy (H&E) of testes of inh-KO mice; format: in vivo, mouse; conditions: male inh-KO mice; FIG. 7B
# Method: as §1, §2
# [5] = Body weight of TOV-21G xenograft-bearing mice; format: in vivo, mouse; conditions: TOV-21G xenograft-bearing athymic nude mice; during the course of the experiment; vehicle controls lost 10%
# Method: In another experiment, athymic nude mice received TOV-21G xenografts in the abdominal flank. After 14 days, subcutaneous hu-sActRIIB-Fc was administered weekly alone or in combination with 5-FU.
molecule,measurement,setting,value
B1,growth rates and sizes of G361 melanoma xenografts,[1],significantly decreased the growth rates and sizes
same,testicular tumor mass,[2],dramatic regression of testicular tumor masses to the WT control levels
same,E-cadherin immunoreactivity in ovarian sections,E-cadherin; FIG. 6B,reappearance of distinctive E-cadherin immunoreactivity
same,E-cadherin protein in ovarian tumors (Western blot),"E-cadherin; single injection, FIG. 6A",dramatically restored the lost E-cadherin
same,serum activin-A levels,"activin-A; inh-KO mice with established gonadal tumors, within one day after administration, FIG. 2A, 2B",reduced the elevated activin-A in the inh-KO mice to normal control levels
same,duration of activin-A-neutralizing effect,activin-A; inh-KO mice,persisted throughout the 14-day study period
same,ovarian morphology (light microscopy),[3],"the ovaries were normal in size and contained many recognizable follicles, minimal tumor cell invasion and few hemorrhagic lesions"
same,testicular morphology (light microscopy),[4],the testes were normal in size and filled with seminiferous tubules
same,body weight increase,[5],26%
